From US20070243569

Legend:
[1] = system: T1, non-phosphorylated pKID-PKA
T1 sequence: DKNADGWIDRASLA

[2] = system: T2, non-phosphorylated pKID-Erk
T2 sequence: DKNADGWIDAASPA

[3] = system: T3, non-phosphorylated pKID-PKC
T3 sequence: DKNADGWIDAASLK

Protein Kinase A (PKA)
extent of peptide phosphorylation by HPLC (conversion to phosphorylated peptide) [1]: pKID-PKA was enzymatically phosphorylated to >95% conversion in 12 hrs by PKA
phosphorylation in HeLa nuclear extract with added PKA after 3 h, conversion by HPLC [1]: Phosphorylation proceeded at 75% conversion as measured by HPLC
extent of peptide phosphorylation by HPLC [2]: under identical conditions pKID-Erk (FIG. 9) and pKID-PKC (FIG. 10) showed no evidence of phosphorylation
extent of peptide phosphorylation by HPLC [3]: under identical conditions pKID-Erk (FIG. 9) and pKID-PKC (FIG. 10) showed no evidence of phosphorylation
